These results are taken from US20240052034A1.

For this assay, the target named is PD-1 on PD-1 reporter Jurkat cells (UniProt Q15116). Kind of assay: cell-based or functional assay.
PD-1 on PD-1 reporter Jurkat cells, sequence (Q15116 25-288 limits assumed): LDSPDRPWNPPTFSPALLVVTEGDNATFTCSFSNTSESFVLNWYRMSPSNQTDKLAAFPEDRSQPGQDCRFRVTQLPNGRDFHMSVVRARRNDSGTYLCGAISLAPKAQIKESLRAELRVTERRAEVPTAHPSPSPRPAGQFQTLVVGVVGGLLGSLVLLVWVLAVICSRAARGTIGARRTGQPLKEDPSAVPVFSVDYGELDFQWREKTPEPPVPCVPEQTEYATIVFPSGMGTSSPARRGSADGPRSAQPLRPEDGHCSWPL

LY3462817 (antibody) gave an EC50 of SHP-2 recruitment, PD-1 reporter Jurkat cells, Ig-tethered test article on anti-human IgG coated plates of 5.69 nM.
